Data published in patent publication US9549967B2, “Regulation of sodium channels by PLUNC proteins” (The University of North Carolina at Chapel Hill, priority 2009, dated 2017).

Assays:
[1] = molecular target: T1, ENaC containing the βS518C mutant (Rattus norvegicus, UniProt P37089+P37090+P37091, S518C); experiment: Oocyte current of ENaC containing the βS518C mutant with MTSET; type: cell-based; conditions: addition of MTSET
T1 construct: expressed in transfected cells; host or cells: Xenopus oocytes
T1 sequence (P37089 1-698): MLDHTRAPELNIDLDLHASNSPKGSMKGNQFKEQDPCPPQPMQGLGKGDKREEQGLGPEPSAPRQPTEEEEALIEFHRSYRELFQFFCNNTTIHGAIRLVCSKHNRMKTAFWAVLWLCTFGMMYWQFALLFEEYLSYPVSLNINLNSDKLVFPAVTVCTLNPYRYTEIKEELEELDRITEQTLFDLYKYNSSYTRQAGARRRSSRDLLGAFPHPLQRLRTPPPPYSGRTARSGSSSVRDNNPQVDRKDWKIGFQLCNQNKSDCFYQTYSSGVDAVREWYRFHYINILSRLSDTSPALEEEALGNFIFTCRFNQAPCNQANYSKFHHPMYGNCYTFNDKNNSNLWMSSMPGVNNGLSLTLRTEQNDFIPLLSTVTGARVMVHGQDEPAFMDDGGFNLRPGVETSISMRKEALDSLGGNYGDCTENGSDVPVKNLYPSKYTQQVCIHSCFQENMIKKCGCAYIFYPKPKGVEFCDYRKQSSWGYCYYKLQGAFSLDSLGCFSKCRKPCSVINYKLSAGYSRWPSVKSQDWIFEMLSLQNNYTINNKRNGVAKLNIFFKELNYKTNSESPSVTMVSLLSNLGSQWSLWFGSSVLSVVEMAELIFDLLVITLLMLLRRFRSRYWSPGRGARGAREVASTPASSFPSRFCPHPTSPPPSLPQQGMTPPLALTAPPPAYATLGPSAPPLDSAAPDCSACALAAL
T1 sequence (P37090 1-638 S518C): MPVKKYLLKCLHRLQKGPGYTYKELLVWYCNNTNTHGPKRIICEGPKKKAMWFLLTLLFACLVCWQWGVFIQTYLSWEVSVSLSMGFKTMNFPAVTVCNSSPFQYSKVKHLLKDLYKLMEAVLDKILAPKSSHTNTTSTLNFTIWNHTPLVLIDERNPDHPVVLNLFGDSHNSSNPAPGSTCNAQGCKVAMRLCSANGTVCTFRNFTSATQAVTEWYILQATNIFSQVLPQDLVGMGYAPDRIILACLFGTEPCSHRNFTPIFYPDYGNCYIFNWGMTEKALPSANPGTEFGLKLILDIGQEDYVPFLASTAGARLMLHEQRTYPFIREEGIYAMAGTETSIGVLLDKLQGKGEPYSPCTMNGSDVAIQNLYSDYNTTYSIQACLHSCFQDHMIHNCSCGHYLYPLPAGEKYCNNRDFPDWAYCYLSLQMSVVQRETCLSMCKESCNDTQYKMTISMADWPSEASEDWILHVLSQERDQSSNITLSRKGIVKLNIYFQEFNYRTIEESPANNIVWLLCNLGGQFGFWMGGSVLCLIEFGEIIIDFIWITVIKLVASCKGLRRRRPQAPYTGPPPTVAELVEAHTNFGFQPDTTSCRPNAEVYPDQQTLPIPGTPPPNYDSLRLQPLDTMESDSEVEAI
T1 sequence (P37091 1-650): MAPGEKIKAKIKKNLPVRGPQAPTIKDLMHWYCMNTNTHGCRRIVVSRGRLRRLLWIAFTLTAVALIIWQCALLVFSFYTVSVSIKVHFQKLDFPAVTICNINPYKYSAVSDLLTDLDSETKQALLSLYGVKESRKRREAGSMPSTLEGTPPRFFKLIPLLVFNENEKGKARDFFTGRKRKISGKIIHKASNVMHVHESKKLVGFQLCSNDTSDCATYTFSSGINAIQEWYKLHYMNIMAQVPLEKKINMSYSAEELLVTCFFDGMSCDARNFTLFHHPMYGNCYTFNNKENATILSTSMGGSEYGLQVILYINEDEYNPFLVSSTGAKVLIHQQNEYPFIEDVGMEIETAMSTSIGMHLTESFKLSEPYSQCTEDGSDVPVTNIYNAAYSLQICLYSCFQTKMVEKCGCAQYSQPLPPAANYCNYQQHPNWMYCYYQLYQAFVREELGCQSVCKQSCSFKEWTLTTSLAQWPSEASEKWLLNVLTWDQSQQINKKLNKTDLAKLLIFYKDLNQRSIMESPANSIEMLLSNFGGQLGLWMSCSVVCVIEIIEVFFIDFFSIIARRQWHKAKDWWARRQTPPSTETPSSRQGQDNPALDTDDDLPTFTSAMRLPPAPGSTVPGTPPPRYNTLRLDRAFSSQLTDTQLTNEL
Method: Oocyte studies. Xenopus laevis oocytes were harvested and injected as described (Donaldson, et al., J. Biol. Chem. 277:8338 (2002)). Defolliculated healthy stage V-VI oocytes were injected with 0.3 ng of cRNA of each ENaC subunit. Injected oocytes were kept in modified Barth's saline (in mM: 88 NaCl, 1 KCl, 2.4 NaHCO3, 0.3 Ca(NO3)2, 0.41 CaCl2, 0.82 MgSO4, and 15 HEPES, adjusted to pH 7.35 with Tris). Oocytes were studied 24 hr after injection using the two electrode voltage clamp technique as previously described (Donaldson, et al., J. Biol. Chem. 277:8338 (2002)). Oocytes were clamped at a holding potential of […]. The change in amiloride-sensitive whole cell current as an indicator of ENaC activity was determined by subtracting the corresponding current value measured in the presence of 10 μM amiloride from that measured before the application of amiloride.
The effect of SPLUNC1 on the number of ENaC channels in the plasma membrane was tested by expressing SPLUNC1 and αENaC in Xenopus oocytes. After surface biotinylation of αENaC, total lysate was prepared and lysate from 3-4 eggs was separated on a 10% gel.

[2] = molecular target: ENaC endogenous to primary human bronchial epithelial cultures (human) (UniProt P37088); experiment: cell-based or functional assay
[3] = molecular target: αβγENaC expressed in Xenopus laevis oocytes (rat) (UniProt P37089); experiment: cell-based or functional assay
[4] = tested on: T2, Recombinant SPLUNC1 (V5/6His-tagged, purified from HEK293 media)
T2 sequence: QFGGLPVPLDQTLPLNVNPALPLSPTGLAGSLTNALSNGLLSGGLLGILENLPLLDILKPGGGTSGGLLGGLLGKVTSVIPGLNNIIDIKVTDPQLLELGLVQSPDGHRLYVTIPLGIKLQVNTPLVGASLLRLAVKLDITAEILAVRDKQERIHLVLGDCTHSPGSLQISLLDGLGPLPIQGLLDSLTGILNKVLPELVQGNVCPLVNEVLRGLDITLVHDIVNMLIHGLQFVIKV

[5] = molecular target: yfp-tagged αENaC stably expressed on JME nasal epithelial cells; experiment: fluorescence binding isotherm on polarized JME cells expressing yfp-αENaC, empty-vector cells as non-specific control, Hill fit
[6] = molecular target: αβγENaC expressed in Xenopus laevis oocytes (rat, UniProt P37089 1-698; P37090 1-638; P37091 1-650); experiment: cell-based or functional assay

Chain of ENaC endogenous to primary human bronchial epithelial cultures (human) (P37088 whole entry, chain 1 of 3): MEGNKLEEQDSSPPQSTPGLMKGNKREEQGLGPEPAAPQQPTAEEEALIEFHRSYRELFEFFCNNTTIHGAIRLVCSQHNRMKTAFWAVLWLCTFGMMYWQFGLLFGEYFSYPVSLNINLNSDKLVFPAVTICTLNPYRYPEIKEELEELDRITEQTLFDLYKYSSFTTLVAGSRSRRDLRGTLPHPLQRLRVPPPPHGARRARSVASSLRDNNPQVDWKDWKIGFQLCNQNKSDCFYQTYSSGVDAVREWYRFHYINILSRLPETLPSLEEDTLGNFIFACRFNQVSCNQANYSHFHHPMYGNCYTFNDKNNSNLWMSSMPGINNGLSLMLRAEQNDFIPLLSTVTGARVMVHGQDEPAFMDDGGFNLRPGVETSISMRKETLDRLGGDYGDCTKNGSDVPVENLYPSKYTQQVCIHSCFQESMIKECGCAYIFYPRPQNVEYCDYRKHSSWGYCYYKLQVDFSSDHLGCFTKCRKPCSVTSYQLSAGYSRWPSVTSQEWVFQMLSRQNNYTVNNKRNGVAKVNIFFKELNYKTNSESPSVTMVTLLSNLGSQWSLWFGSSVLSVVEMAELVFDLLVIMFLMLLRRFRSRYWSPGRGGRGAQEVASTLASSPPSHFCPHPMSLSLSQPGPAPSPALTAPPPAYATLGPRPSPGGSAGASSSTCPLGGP
Chain of ENaC endogenous to primary human bronchial epithelial cultures (human) (P51168 whole entry, chain 2 of 3, further chain): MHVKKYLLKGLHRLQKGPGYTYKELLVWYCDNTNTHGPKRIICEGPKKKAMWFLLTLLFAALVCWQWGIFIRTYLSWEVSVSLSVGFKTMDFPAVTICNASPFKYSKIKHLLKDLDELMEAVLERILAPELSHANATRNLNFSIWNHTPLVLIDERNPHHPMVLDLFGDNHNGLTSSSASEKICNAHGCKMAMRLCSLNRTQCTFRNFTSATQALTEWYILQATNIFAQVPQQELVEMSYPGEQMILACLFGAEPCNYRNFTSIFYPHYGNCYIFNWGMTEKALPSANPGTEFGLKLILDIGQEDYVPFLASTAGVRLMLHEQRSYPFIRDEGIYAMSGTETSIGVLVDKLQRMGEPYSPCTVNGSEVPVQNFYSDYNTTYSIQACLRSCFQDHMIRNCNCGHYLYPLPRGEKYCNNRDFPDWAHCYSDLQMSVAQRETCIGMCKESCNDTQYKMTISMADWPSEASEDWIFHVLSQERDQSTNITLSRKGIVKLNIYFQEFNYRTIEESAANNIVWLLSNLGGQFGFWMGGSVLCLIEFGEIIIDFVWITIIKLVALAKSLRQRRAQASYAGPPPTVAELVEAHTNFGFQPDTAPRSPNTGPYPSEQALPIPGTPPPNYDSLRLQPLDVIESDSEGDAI
Chain of ENaC endogenous to primary human bronchial epithelial cultures (human) (P51170 whole entry, chain 3 of 3, further chain): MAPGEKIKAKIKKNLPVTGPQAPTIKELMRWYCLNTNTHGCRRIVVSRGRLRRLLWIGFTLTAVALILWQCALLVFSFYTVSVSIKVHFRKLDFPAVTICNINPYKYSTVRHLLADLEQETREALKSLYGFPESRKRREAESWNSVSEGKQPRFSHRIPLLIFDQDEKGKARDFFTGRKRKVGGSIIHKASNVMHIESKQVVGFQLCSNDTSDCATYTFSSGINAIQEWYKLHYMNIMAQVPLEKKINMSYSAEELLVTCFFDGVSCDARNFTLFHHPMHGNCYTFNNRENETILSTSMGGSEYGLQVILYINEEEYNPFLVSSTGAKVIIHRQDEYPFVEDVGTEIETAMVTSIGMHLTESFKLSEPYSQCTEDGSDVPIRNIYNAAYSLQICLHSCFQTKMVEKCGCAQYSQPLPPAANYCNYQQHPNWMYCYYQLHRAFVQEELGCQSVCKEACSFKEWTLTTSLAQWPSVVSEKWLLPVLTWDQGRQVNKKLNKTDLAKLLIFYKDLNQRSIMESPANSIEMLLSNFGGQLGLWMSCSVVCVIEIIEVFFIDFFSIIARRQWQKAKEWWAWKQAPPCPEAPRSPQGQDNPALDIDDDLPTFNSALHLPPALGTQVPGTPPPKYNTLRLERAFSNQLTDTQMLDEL
Chain of yfp-tagged αENaC stably expressed on JME nasal epithelial cells (P37088 whole entry): as the sequence (P37088 whole entry, chain 1 of 3) above

C[N+](C)(C)CCSS(C)(=O)=O.[Br-] [MTSET, reference compound]
ENaC Po [1]: 1.0

Recombinant SPLUNC1 (V5/6His-tagged, purified from HEK293 media) (from UniProt Q9NP55 20-256)
ENaC inhibition [2]: 70%
transepithelial electrical resistance [2]: 33%
decrease in ENaC currents (amiloride-sensitive whole cell current, oocytes) [3]: 70%

trypsin
cleavage of fluorogenic substrate BGAR-MCA by 1.0 or 0.3 U/ml trypsin [4]: 50 ng/ml rSPLUNC1 had only a modest affect (˜10%) on the ability of either 1.0 or 0.3 U/ml trypsin to cleave a fluorogenic substrate

Texas red-labeled recombinant SPLUNC1 (from UniProt Q9NP55 20-256)
Kd [5]: 0.055 µg/mL

B1: V5-tagged SPLUNC1 expressed in Xenopus oocytes (other, not shown: small tags and cut ends)
chain: T2 sequence
decrease in amiloride-sensitive ENaC current relative to control oocytes [6]: ~70%
